Experimental data reported in article PMC9352680, “A comprehensive thermodynamic model for RNA binding by the Saccharomyces cerevisiae Pumilio protein PUF4”.

T1: PUF4 RNA-binding domain (Saccharomyces cerevisiae, UniProt P25339 537-888)
T1 sequence: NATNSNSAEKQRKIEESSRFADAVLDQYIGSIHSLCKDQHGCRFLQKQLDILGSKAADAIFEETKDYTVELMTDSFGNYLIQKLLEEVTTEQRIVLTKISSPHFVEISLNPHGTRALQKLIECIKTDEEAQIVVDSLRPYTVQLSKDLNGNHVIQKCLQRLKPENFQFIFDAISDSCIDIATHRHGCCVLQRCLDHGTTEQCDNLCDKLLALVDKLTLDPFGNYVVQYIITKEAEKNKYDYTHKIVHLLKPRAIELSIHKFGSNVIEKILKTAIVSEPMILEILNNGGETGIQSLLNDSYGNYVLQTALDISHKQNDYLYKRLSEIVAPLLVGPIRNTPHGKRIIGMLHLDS


Target: T1, PUF4 RNA-binding domain
Assay: Mg; RNA-MaP; 20 mM Na-HEPES pH 7.4, 30 mM KOAc, 0.75 mM MgCl2, 0.1% Tween-20, 5% glycerol, 0.1 mg/mL BSA, 2 mM DTT; 25 C; 0.0125-409.6 nM protein
Settings: tags: N-His6-TEV cleaved; C-SNAP kept, Cy3B-labelled; label: tethered on chip by stalled RNA polymerase

Binder	Kd
UCUCUUUGUAUAACUCUCUU (ssRNA) [Ib_S1_P3E.1_K3.1_C3.1_H3.1_A3.1_F3.1_[T7A]_[A8C]_T3.1]	47 nM
UCUCUUUGUACGAACUCUCUU (ssRNA) [Ic_S1_P4E.1_K4.1_C4.1_H4.1_A4.1_[T5C]_[A6G]_[T7A]_F4.1_[T8A]_[A9C]_T4.1]	985 nM
UCUCUUUGUAUAAUUCUCUU (ssRNA) [Ib_S1_P3E.1_K3.1_C3.1_H3.1_A3.1_F3.1_[T7A]_[A8T]_T3.1]	9.97 nM
UCUCUUUGUACGCAAUCUCUU (ssRNA) [Ic_S1_P4E.1_K4.1_C4.1_H4.1_A4.1_[T5C]_[A6G]_[T7C]_F4.1_[T8A]_T4.1]	139 nM
UCUCUUUGUAGUCUCUCUCUU (ssRNA) [Ic_S1_P4E.1_K4.1_C4.1_H4.1_A4.1_[T5G]_[A6T]_[T7C]_F4.1_[A9C]_T4.1]	658 nM
UCUCUUUGUACGCUUUCUCUU (ssRNA) [Ic_S1_P4E.1_K4.1_C4.1_H4.1_A4.1_[T5C]_[A6G]_[T7C]_F4.1_[A9T]_T4.1]	51 nM
UCUCUUUCUAUACAUCUCUU (ssRNA) [Ib_S1_P3E.1_K3.1_C3.1_H3.1_[G2C]_A3.1_F3.1_[T7C]_T3.1]	> 2300 nM
UCUCUUUGUAGUUUCUCUCUU (ssRNA) [Ic_S1_P4E.1_K4.1_C4.1_H4.1_A4.1_[T5G]_[A6T]_F4.1_[A9C]_T4.1]	365 nM
UCUCUUUGUACGCCUUCUCUU (ssRNA) [Ic_S1_P4E.1_K4.1_C4.1_H4.1_A4.1_[T5C]_[A6G]_[T7C]_F4.1_[T8C]_[A9T]_T4.1]	777 nM
UCUCUUUGUACGUGAUCUCUU (ssRNA) [Ic_S1_P4E.1_K4.1_C4.1_H4.1_A4.1_[T5C]_[A6G]_F4.1_[T8G]_T4.1]	629 nM
UCUCUUUGUAGUAUCUCUCUU (ssRNA) [Ic_S1_P4E.1_K4.1_C4.1_H4.1_A4.1_[T5G]_[A6T]_[T7A]_F4.1_[A9C]_T4.1]	590 nM
UCUCUUUAUAUACAUCUCUU (ssRNA) [Ib_S1_P3E.1_K3.1_C3.1_H3.1_[G2A]_A3.1_F3.1_[T7C]_T3.1]	> 2300 nM
UCUCUUUGUACGUUGUCUCUU (ssRNA) [Ic_S1_P4E.1_K4.1_C4.1_H4.1_A4.1_[T5C]_[A6G]_F4.1_[A9G]_T4.1]	40.5 nM
UCUCUUUGUAUAAGUCUCUU (ssRNA) [Ib_S1_P3E.1_K3.1_C3.1_H3.1_A3.1_F3.1_[T7A]_[A8G]_T3.1]	502 nM
UCUCUUUGUACGUACUCUCUU (ssRNA) [Ic_S1_P4E.1_K4.1_C4.1_H4.1_A4.1_[T5C]_[A6G]_F4.1_[T8A]_[A9C]_T4.1]	1560 nM
UCUCUUUGUAGUCUUUCUCUU (ssRNA) [Ic_S1_P4E.1_K4.1_C4.1_H4.1_A4.1_[T5G]_[A6T]_[T7C]_F4.1_[A9T]_T4.1]	389 nM
UCUCUUUGUAGUUAUUCUCUU (ssRNA) [Ic_S1_P4E.1_K4.1_C4.1_H4.1_A4.1_[T5G]_[A6T]_F4.1_[T8A]_[A9T]_T4.1]	685 nM
UCUCUUUGUACGUAGUCUCUU (ssRNA) [Ic_S1_P4E.1_K4.1_C4.1_H4.1_A4.1_[T5C]_[A6G]_F4.1_[T8A]_[A9G]_T4.1]	93.5 nM
UCUCUUUGUACGCGAUCUCUU (ssRNA) [Ic_S1_P4E.1_K4.1_C4.1_H4.1_A4.1_[T5C]_[A6G]_[T7C]_F4.1_[T8G]_T4.1]	727 nM
UCUCUUUGUAGUUUGUCUCUU (ssRNA) [Ic_S1_P4E.1_K4.1_C4.1_H4.1_A4.1_[T5G]_[A6T]_F4.1_[A9G]_T4.1]	287 nM
UCUCUUUGUAGUAUUUCUCUU (ssRNA) [Ic_S1_P4E.1_K4.1_C4.1_H4.1_A4.1_[T5G]_[A6T]_[T7A]_F4.1_[A9T]_T4.1]	297 nM
UCUCUUUGUAGUAUGUCUCUU (ssRNA) [Ic_S1_P4E.1_K4.1_C4.1_H4.1_A4.1_[T5G]_[A6T]_[T7A]_F4.1_[A9G]_T4.1]	278 nM

Binder	Kd
UCUCUUUGUACGUGCUCUCUU (ssRNA) [Ic_S1_P4E.1_K4.1_C4.1_H4.1_A4.1_[T5C]_[A6G]_F4.1_[T8G]_[A9C]_T4.1]	466 nM
UCUCUUUGUACGUUCUCUCUU (ssRNA) [Ic_S1_P4E.1_K4.1_C4.1_H4.1_A4.1_[T5C]_[A6G]_F4.1_[A9C]_T4.1]	29.9 nM
UCUCUUUGUAGUACAUCUCUU (ssRNA) [Ic_S1_P4E.1_K4.1_C4.1_H4.1_A4.1_[T5G]_[A6T]_[T7A]_F4.1_[T8C]_T4.1]	1720 nM
UCUCUUUGUAGUAACUCUCUU (ssRNA) [Ic_S1_P4E.1_K4.1_C4.1_H4.1_A4.1_[T5G]_[A6T]_[T7A]_F4.1_[T8A]_[A9C]_T4.1]	> 2300 nM
UCUCUUUGUACGGCCUCUCUU (ssRNA) [Ic_S1_P4E.1_K4.1_C4.1_H4.1_A4.1_[T5C]_[A6G]_[T7G]_F4.1_[T8C]_[A9C]_T4.1]	> 2300 nM
UCUCUUUGUACGCAGUCUCUU (ssRNA) [Ic_S1_P4E.1_K4.1_C4.1_H4.1_A4.1_[T5C]_[A6G]_[T7C]_F4.1_[T8A]_[A9G]_T4.1]	1140 nM
UCUCUUUGUACGUAUUCUCUU (ssRNA) [Ic_S1_P4E.1_K4.1_C4.1_H4.1_A4.1_[T5C]_[A6G]_F4.1_[T8A]_[A9T]_T4.1]	96.3 nM
UCUCUUUGUACGGCAUCUCUU (ssRNA) [Ic_S1_P4E.1_K4.1_C4.1_H4.1_A4.1_[T5C]_[A6G]_[T7G]_F4.1_[T8C]_T4.1]	625 nM
UCUCUUUGUAGUCCAUCUCUU (ssRNA) [Ic_S1_P4E.1_K4.1_C4.1_H4.1_A4.1_[T5G]_[A6T]_[T7C]_F4.1_[T8C]_T4.1]	1510 nM
UCUCUUUGUAGUUGUUCUCUU (ssRNA) [Ic_S1_P4E.1_K4.1_C4.1_H4.1_A4.1_[T5G]_[A6T]_F4.1_[T8G]_[A9T]_T4.1]	802 nM
UCUCUUUGUACGCGUUCUCUU (ssRNA) [Ic_S1_P4E.1_K4.1_C4.1_H4.1_A4.1_[T5C]_[A6G]_[T7C]_F4.1_[T8G]_[A9T]_T4.1]	1440 nM
UCUCUUUGUACGUCUUCUCUU (ssRNA) [Ic_S1_P4E.1_K4.1_C4.1_H4.1_A4.1_[T5C]_[A6G]_F4.1_[T8C]_[A9T]_T4.1]	1520 nM
UCUCUUUGUAGUCAUUCUCUU (ssRNA) [Ic_S1_P4E.1_K4.1_C4.1_H4.1_A4.1_[T5G]_[A6T]_[T7C]_F4.1_[T8A]_[A9T]_T4.1]	971 nM
UCUCUUUGUAGUCUGUCUCUU (ssRNA) [Ic_S1_P4E.1_K4.1_C4.1_H4.1_A4.1_[T5G]_[A6T]_[T7C]_F4.1_[A9G]_T4.1]	406 nM
UCUCUUUGUAGUUACUCUCUU (ssRNA) [Ic_S1_P4E.1_K4.1_C4.1_H4.1_A4.1_[T5G]_[A6T]_F4.1_[T8A]_[A9C]_T4.1]	982 nM
UCUCUUUGUACGGCGUCUCUU (ssRNA) [Ic_S1_P4E.1_K4.1_C4.1_H4.1_A4.1_[T5C]_[A6G]_[T7G]_F4.1_[T8C]_[A9G]_T4.1]	> 2300 nM
UCUCUUUGUACGGUCUCUCUU (ssRNA) [Ic_S1_P4E.1_K4.1_C4.1_H4.1_A4.1_[T5C]_[A6G]_[T7G]_F4.1_[A9C]_T4.1]	1490 nM
UCUCUUUGUAGUUCAUCUCUU (ssRNA) [Ic_S1_P4E.1_K4.1_C4.1_H4.1_A4.1_[T5G]_[A6T]_F4.1_[T8C]_T4.1]	1570 nM
UCUCUUUGUACGGUAUCUCUU (ssRNA) [Ic_S1_P4E.1_K4.1_C4.1_H4.1_A4.1_[T5C]_[A6G]_[T7G]_F4.1_T4.1]	13.4 nM
UCUCUUUGUACGAUAUCUCUU (ssRNA) [Ic_S1_P4E.1_K4.1_C4.1_H4.1_A4.1_[T5C]_[A6G]_[T7A]_F4.1_T4.1]	2.75 nM
UCUCUUUGUACGCACUCUCUU (ssRNA) [Ic_S1_P4E.1_K4.1_C4.1_H4.1_A4.1_[T5C]_[A6G]_[T7C]_F4.1_[T8A]_[A9C]_T4.1]	669 nM
UCUCUUUGUACGCAUUCUCUU (ssRNA) [Ic_S1_P4E.1_K4.1_C4.1_H4.1_A4.1_[T5C]_[A6G]_[T7C]_F4.1_[T8A]_[A9T]_T4.1]	425 nM

Binder	Kd
UCUCUUUGUACGUCCUCUCUU (ssRNA) [Ic_S1_P4E.1_K4.1_C4.1_H4.1_A4.1_[T5C]_[A6G]_F4.1_[T8C]_[A9C]_T4.1]	482 nM
UCUCUUUGUACGUCAUCUCUU (ssRNA) [Ic_S1_P4E.1_K4.1_C4.1_H4.1_A4.1_[T5C]_[A6G]_F4.1_[T8C]_T4.1]	118 nM
UCUCUUUGUACGCGCUCUCUU (ssRNA) [Ic_S1_P4E.1_K4.1_C4.1_H4.1_A4.1_[T5C]_[A6G]_[T7C]_F4.1_[T8G]_[A9C]_T4.1]	1130 nM
UCUCUUUGUACGCCCUCUCUU (ssRNA) [Ic_S1_P4E.1_K4.1_C4.1_H4.1_A4.1_[T5C]_[A6G]_[T7C]_F4.1_[T8C]_[A9C]_T4.1]	879 nM
UCUCUUUGUACGGUUUCUCUU (ssRNA) [Ic_S1_P4E.1_K4.1_C4.1_H4.1_A4.1_[T5C]_[A6G]_[T7G]_F4.1_[A9T]_T4.1]	360 nM
UCUCUUAGUAUACAUCUCUU (ssRNA) [Ib_S1_P3E.1_K3.1_C3.1_H3.1_[T1A]_A3.1_F3.1_[T7C]_T3.1]	> 2300 nM
UCUCUUUGUAGUCACUCUCUU (ssRNA) [Ic_S1_P4E.1_K4.1_C4.1_H4.1_A4.1_[T5G]_[A6T]_[T7C]_F4.1_[T8A]_[A9C]_T4.1]	1760 nM
UCUCUUUGUACGGUGUCUCUU (ssRNA) [Ic_S1_P4E.1_K4.1_C4.1_H4.1_A4.1_[T5C]_[A6G]_[T7G]_F4.1_[A9G]_T4.1]	503 nM
UCUCUUUGUACGUGUUCUCUU (ssRNA) [Ic_S1_P4E.1_K4.1_C4.1_H4.1_A4.1_[T5C]_[A6G]_F4.1_[T8G]_[A9T]_T4.1]	110 nM
UCUCUUUGUAGUUCCUCUCUU (ssRNA) [Ic_S1_P4E.1_K4.1_C4.1_H4.1_A4.1_[T5G]_[A6T]_F4.1_[T8C]_[A9C]_T4.1]	1260 nM
UCUCUUUGUACGAUGUCUCUU (ssRNA) [Ic_S1_P4E.1_K4.1_C4.1_H4.1_A4.1_[T5C]_[A6G]_[T7A]_F4.1_[A9G]_T4.1]	23.8 nM
UCUCUUUGUAGUUCUUCUCUU (ssRNA) [Ic_S1_P4E.1_K4.1_C4.1_H4.1_A4.1_[T5G]_[A6T]_F4.1_[T8C]_[A9T]_T4.1]	798 nM
UCUCUUUGUAGUAAUUCUCUU (ssRNA) [Ic_S1_P4E.1_K4.1_C4.1_H4.1_A4.1_[T5G]_[A6T]_[T7A]_F4.1_[T8A]_[A9T]_T4.1]	1500 nM
UCUCUUUGUAGUUCGUCUCUU (ssRNA) [Ic_S1_P4E.1_K4.1_C4.1_H4.1_A4.1_[T5G]_[A6T]_F4.1_[T8C]_[A9G]_T4.1]	> 2300 nM
UCUCUUUGUAGUAUAUCUCUU (ssRNA) [Ic_S1_P4E.1_K4.1_C4.1_H4.1_A4.1_[T5G]_[A6T]_[T7A]_F4.1_T4.1]	11.2 nM
UCUCUUUGUAGUUUUUCUCUU (ssRNA) [Ic_S1_P4E.1_K4.1_C4.1_H4.1_A4.1_[T5G]_[A6T]_F4.1_[A9T]_T4.1]	118 nM
UCUCUUUGUAGUACUUCUCUU (ssRNA) [Ic_S1_P4E.1_K4.1_C4.1_H4.1_A4.1_[T5G]_[A6T]_[T7A]_F4.1_[T8C]_[A9T]_T4.1]	760 nM
UCUCUUUGUAGUCUAUCUCUU (ssRNA) [Ic_S1_P4E.1_K4.1_C4.1_H4.1_A4.1_[T5G]_[A6T]_[T7C]_F4.1_T4.1]	21.1 nM
UCUCUUUGUAAAUAUCUCUU (ssRNA) [Ic_S1_P3E.1_K3.1_C3.1_H3.1_A3.1_[T5A]_F3.1_T3.1]	28 nM
UCUCUUUGUACGCCAUCUCUU (ssRNA) [Ic_S1_P4E.1_K4.1_C4.1_H4.1_A4.1_[T5C]_[A6G]_[T7C]_F4.1_[T8C]_T4.1]	29.5 nM
UCUCUUUGUACGAUUUCUCUU (ssRNA) [Ic_S1_P4E.1_K4.1_C4.1_H4.1_A4.1_[T5C]_[A6G]_[T7A]_F4.1_[A9T]_T4.1]	22.7 nM
